Experiments:
[1] = target: T1, construct 4276 (single-chain TMP: NKG2 peptide …, β2M polypeptide, HLA-E heavy chain polypeptide, Ig Fc …); experiment: BLI (Octet HTX), biotinylated receptor on streptavidin biosensor, bivalent TMP as analyte, steady state Kd (avidity)
Text: (§1) Streptavidin-coated biosensors were used to immobilize biotinylated NKG2A/CD94 heterodimers, or biotinylated NKG2C/CD94 heterodimers.

[2] = target: T1, construct 4276 (single-chain TMP: NKG2 …); experiment: BLI (Octet HTX), biotinylated receptor on streptavidin biosensor, bivalent TMP as analyte, kinetic analysis
Text: as §1

Binder	Kd [1]	koff [2]
biotinylated NKG2A/CD94 heterodimer (receptor, Biotinylated heterodimer immobilized on streptavidin-coated biosensors; also called CD94/NKG2A receptor; NKG2A/CD94 complex) chain 1: not shown chain 2: KNSFTKLSIEPAFTPGPNIELQKDSDCCSCQEKWVGYRCNCYFISSEQKTWNESRHLCASQKSSLLQLQNTDELDFMSSSQQFYWIGLSYSEEHTAWLWENGSALSQYLFPSFETFNTKNCIAYNPNGNALDESCEDKNRYICKQQLI	57 nM	0.04 s⁻¹
biotinylated NKG2C/CD94 heterodimer (receptor, Biotinylated heterodimer immobilized on streptavidin-coated biosensors; also called CD94/NKG2C receptor) chain 1: not shown chain 2: KNSFTKLSIEPAFTPGPNIELQKDSDCCSCQEKWVGYRCNCYFISSEQKTWNESRHLCASQKSSLLQLQNTDELDFMSSSQQFYWIGLSYSEEHTAWLWENGSALSQYLFPSFETFNTKNCIAYNPNGNALDESCEDKNRYICKQQLI	55 nM	0.053 s⁻¹

Reference: patent publication US20260184758A1 (CUE BIOPHARMA, published 2026)
